From patent US20020086323

Target: T1, LtrA (Lactococcus lactis) (UniProt P0A3U0)
T1 sequence: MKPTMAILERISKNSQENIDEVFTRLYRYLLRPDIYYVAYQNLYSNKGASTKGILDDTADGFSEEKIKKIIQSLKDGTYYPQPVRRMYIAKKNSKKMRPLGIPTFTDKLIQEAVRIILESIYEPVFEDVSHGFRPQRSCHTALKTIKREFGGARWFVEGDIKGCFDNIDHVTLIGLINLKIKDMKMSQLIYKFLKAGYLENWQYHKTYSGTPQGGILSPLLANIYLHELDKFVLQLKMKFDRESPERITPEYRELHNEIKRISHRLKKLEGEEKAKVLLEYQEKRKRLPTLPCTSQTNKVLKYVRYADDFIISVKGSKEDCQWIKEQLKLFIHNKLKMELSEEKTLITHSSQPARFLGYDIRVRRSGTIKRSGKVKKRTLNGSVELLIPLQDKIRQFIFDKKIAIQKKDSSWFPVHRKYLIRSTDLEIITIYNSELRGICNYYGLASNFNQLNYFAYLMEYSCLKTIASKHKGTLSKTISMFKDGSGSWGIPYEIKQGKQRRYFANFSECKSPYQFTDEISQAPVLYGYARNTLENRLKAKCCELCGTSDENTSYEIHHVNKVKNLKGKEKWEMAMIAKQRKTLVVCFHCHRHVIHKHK
Assay: cleavage_in_vitro

Ll.ltrB intron RNA ; ltrB +2 to +5 TGCG was tested, and the binding signal was < 10 % of WT.
